Measured values from patent US20160130327A1 (Merck Sharp & Dohme, published 2016).

Legend:
[1] = target: T1, revertant virus (AD169 CMV with the pentameric gH complex restored); test: cell-based or functional assay
[2] = target: T1, revertant virus (AD169 CMV with the …); test: antibody-titration EIA, coated revertant virions
[3] = target: T2, recombinant gB (human cytomegalovirus (CMV), UniProt P06473 32-700); test: EIA on recombinant gB
T2 construct: also called gB protein; recombinant gB antigen
T2 sequence (P06473 32-700 limits assumed): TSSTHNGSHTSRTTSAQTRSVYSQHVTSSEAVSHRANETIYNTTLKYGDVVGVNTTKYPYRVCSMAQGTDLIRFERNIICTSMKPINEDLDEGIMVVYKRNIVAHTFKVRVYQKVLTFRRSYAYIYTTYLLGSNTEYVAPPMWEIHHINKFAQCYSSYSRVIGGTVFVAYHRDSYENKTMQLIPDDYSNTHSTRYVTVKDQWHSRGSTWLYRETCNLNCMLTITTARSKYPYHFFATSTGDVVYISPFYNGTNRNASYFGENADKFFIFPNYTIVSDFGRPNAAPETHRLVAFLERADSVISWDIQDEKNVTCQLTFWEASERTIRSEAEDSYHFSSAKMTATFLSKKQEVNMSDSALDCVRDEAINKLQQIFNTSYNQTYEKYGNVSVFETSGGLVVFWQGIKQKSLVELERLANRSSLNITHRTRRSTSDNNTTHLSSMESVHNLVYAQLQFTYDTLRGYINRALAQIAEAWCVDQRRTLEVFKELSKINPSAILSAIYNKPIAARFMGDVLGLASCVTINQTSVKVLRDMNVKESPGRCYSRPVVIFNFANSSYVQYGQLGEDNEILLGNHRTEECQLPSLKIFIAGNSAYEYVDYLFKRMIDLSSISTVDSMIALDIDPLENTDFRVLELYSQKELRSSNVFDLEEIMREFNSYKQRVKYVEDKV

B1: 350.1 (antibody, V domains shown)
VH: QSLEESGGDLVKPGASLTLTCTASGFSFSNSYYMCWVRQAPGKGLEWIVCIYAGSSGFTYYANWAKGRFTVSKTSSTTVTLQMTSLTAADTATYFCARDRGYYTYGYAGYGYGMDLWGPGTLVTISS
VL: ELDMTQTPSPVSTAVGGTVSISCQSGQNVWTNDYLSWYQQKPGQPPKLLIYRASTLASGVPSRFKGSGSGTQFTLTISDVQCDDAATYYCGGTFLSNGDNGFGGGTEVVVK
notes: rabbit hybridoma mAb; also called clone 350.1; mAb 350.1
- Neutralization in ARPE-19 cells EC50 [1]: 100 µg/mL
- Neutralization in MRC-5 cells EC50 [1]: 100 µg/mL
- EC50 [2]: 0.02 µg/mL

B2: 58.5 (antibody, V domains shown)
VH: QSLEESGGRLVTPGGSLTLTCTVSGFSLSAYSVSWVRQAPGKGLEWIGIIGHSGNTYYASWAKGRFTISKTSTTVDLKITSLTTEDTATYFCAREDYRYGDYGYYWDFNFWGPGTLVTISS
VL: ELDLTQTASPVSAPVGGTVTINCQASQNIYSNLAWYQQKPGQPPKLLIYGASTLASGVSSRFKGSRSGTEFTLTISDLECADAATYYCQSYVYSSSTADTFGGGTEVVVK
notes: rabbit hybridoma mAb (not the humanized version); also called clone 58.5
- Neutralization in ARPE-19 cells EC50 [1]: 0.02 µg/mL
- Neutralization in MRC-5 cells EC50 [1]: 100 µg/mL
- EC50 [2]: 0.59 µg/mL
- binding result [3]: no binding (tested: 1 µg/ml)

B3: 223.4 (antibody, V domains shown)
VH: QSLEESGGRLVTPGTPLTLTCTVSGFSLSAYSVSWVRQAPGKGLEWIGIIGHSGNTYYANWAKGRFTISKTSTTVDLKITSLTIEDTATYFCAREDYRYGDYGYYWDFNFWGPGTLVTISS
VL: ELVMTQTPSPVSAPVGGTVTISCQASRSVYNENYVAWFQHRPGQPPKLLIYTTSILASGVPSRFKGRGSGTQFTLTISDVQCDDAATYYCAGDYDDNEENAFGGGTELEIL
notes: rabbit hybridoma mAb; also called clone 223.4
- Neutralization in ARPE-19 cells EC50 [1]: 0.06 µg/mL
- Neutralization in MRC-5 cells EC50 [1]: 100 µg/mL
- EC50 [2]: 1.54 µg/mL
- binding result [3]: no binding (tested: 1 µg/ml)

B4: 70.7 (antibody, V domains shown)
VH: QSVEESRGRLVTPGTPLTLTCTASGFSLSSYHMIWVRQAPGKGLEWIGYINYNNNPYYATWAKGRFTISRTSTTVALKITSPTTEDSATYFCARAAGNYYVGALNLWGPGTLVTISS
VL: ERDMTQTPASVEVAVGGTVTIKCQASQSIGNLLAWYQQKPGQRPKLLIYDASTLASGVPSRFKGSGSGTEFTLTISGVQCADAATYYCQQGYMITNVENAFGGGTEVVVK
notes: rabbit hybridoma mAb; also called clone 70.7
- Neutralization in ARPE-19 cells EC50 [1]: 0.03 µg/mL
- Neutralization in MRC-5 cells EC50 [1]: 0.09 µg/mL
- EC50 [2]: 1.46 µg/mL
- binding result [3]: no binding (tested: 1 µg/ml)

B5: 316.2 (antibody, V domains shown)
VH: QSVKESEGRLVTPGTPLTLTCTASGFSLSSYHMIWVRQAPGKGLEWIGYINNNDNPYYATWAKGRFTISRTSTTVALKITSPTTKDTATYFCARAAGNYYVGALNLWGPGTLVTISS
VL: ELVLTQTPASVEVAVGGTVTIKCQASQTIGNLLGWYQQKPGRPPKLLIYDASTLASGVPSRFKGSGSATEFTLTIRGVQCDDAATYYCQQGYMITNVENAFGGGTEVVVK
notes: rabbit hybridoma mAb; also called clone 316.2
- Neutralization in ARPE-19 cells EC50 [1]: 0.02 µg/mL
- Neutralization in MRC-5 cells EC50 [1]: 0.08 µg/mL
- EC50 [2]: 1.06 µg/mL
- binding result [3]: no binding (tested: 1 µg/ml)

B6: 270.7 (antibody, V domains shown)
VH: QSVEESGGRLVTPGTPLALTCTASRFSLSSNHMIWVRQAPGKGLEWIGYINYNNNPYYATWAKGRFTISRTSTTVALKITSPTTEDTATYFCARAAGNYYVGALNLWGPGTLVTISS
VL: ELVMTQTPASVEVAVGGTVTIKCQASQSIGNLLAWYQQEPGQRPKLLIYDASTLASGVPSRFKGSGSGTEFTLTISGVQCADAATYYCQQGYMITNVENAFGGGTNVEIK
notes: rabbit hybridoma mAb; also called clone 270.7
- Neutralization in ARPE-19 cells EC50 [1]: 0.02 µg/mL
- Neutralization in MRC-5 cells EC50 [1]: 0.06 µg/mL
- EC50 [2]: 0.68 µg/mL
- binding result [3]: no binding (tested: 1 µg/ml)

B7: 57.4 (antibody, V domains shown)
VH: QSLEESGGGLVKPGGTLTLTCTASGFSFSSVYDMSWVRQAPGKGLEWIASIVTGSRTTWYASWAKGRFTVSKTSSTTVTLQMTSLTAADTATYFCARGEYGHDGYVDGTMGLGLWGPGTLVTISS
VL: ELDLTQTPASVEAAVGGTVAIKCQASQSIRRHLSWYQQKPGQRPKLLIYGASNLASGVSSRFKGSGSGTEFTLTISDLECADAATYYCQCTYGVGFSSTYGDAFGGGTELEIL
notes: rabbit hybridoma mAb (not the humanized version); also called clone 57.4; mAb 57.4
- Neutralization in ARPE-19 cells EC50 [1]: 0.01 µg/mL
- Neutralization in MRC-5 cells EC50 [1]: 100 µg/mL
- EC50 [2]: 0.09 µg/mL
- binding result [3]: no binding (tested: 1 µg/ml)

B8: 276.10 (antibody, V domains shown)
VH: QSLEESGGDLVQPEGSLTLTCTASGFSFSGSYYMCWVRQAPGTGLEWIACIDGDLSGSAYYANWAKGRFTISGTSSTTVTLQVTSLTAADTATYFCAREGPVGVGSIYLGFDLWGPGTLVTISS
VL: ELDLTQTPASVEVPVGGTVTIKCQASHNINTYLSWYQQKPGQPPKLLIYRASDLASGVSSRFSGSGSGTQFTLTISGVECADAATYYCQQGFNSLNVENVFGGGTEVVVK
notes: rabbit hybridoma mAb (not the humanized version); also called clone 276.10
- Neutralization in ARPE-19 cells EC50 [1]: 0.01 µg/mL
- Neutralization in MRC-5 cells EC50 [1]: 100 µg/mL
- EC50 [2]: 0.25 µg/mL
- binding result [3]: no binding (tested: 1 µg/ml)

B9: 240.8 (antibody, V domains shown)
VH: QSVEESGGGLVTPGGTLTLTCGVSGIDLSANEMGWVRQAPGEGLEWIGTLSYHNIPHYATWAKGRFTISKTSTTVDLKITSPTSADTATYFCGRVFTSTSFDPWGPGTLVTISS
VL: ELVMTHPPASVSAPVGGTVTIKCQASHNIGSRLPWYQQEPGQPPKLLIYRTSTLASGVPSRFTGSGYGTEFTLTISDLECADAATYYCQDHDDISHAFGGGTNVEIK
notes: rabbit hybridoma mAb; also called clone 240.8
- Neutralization in ARPE-19 cells EC50 [1]: 0.79 µg/mL
- Neutralization in MRC-5 cells EC50 [1]: 100 µg/mL
- EC50 [2]: 2.6 µg/mL

B10: 210.4 (antibody, V domains shown)
VH: QSVEESGGRLVTPGTPLTLTCTVSGFSLSTNAMSWVRQAPGKGLEWIGYIWSGGSTYYASWAKGRFAISKTSTTVDLKITSPTTEDTATYFCAKNGDNGQLDLWGQGTLVTVSS
VL: ELVLTQTPSPVSAAVGGTVTINCQTSQSLYNNNFLSWYQQKPGQPPKLLIYKASTLESGVPSRFKGSGSGTQFTLTISGVQCDDAATYYCQGEFSCSSADCNAFGGGTEVVVK
notes: rabbit hybridoma mAb; also called clone 210.4
- Neutralization in ARPE-19 cells EC50 [1]: 100 µg/mL
- Neutralization in MRC-5 cells EC50 [1]: 100 µg/mL
- EC50 [2]: 0.03 µg/mL

B11: 124.4 (antibody, V domains shown)
VH: QSLEESGGRLVTPGTPLTLTCTVSGFSLSSCNMGWVRQAPGEGLEWIGYIAASGDAFYASWAKGRFTISKTSSTTVDLRITSPTTEDTAAYFCARGSYAAYNAWDLWGPGTLVTVSS
VL: ELDMTQTASPVSAAVGGTVTINCQSSQSVYNKNYLSWYQQKPGQPPKLLIYGASTLPSGVPSRFKGSGSGTQFTLTISEVQCDDAATYYCQGYYSGYIYAFGGGTEVVVK
notes: rabbit hybridoma mAb; also called clone 124.4
- Neutralization in ARPE-19 cells EC50 [1]: 0.05 µg/mL
- Neutralization in MRC-5 cells EC50 [1]: 0.08 µg/mL
- EC50 [2]: 1.72 µg/mL
- binding result [3]: no binding (tested: 1 µg/ml)

B12: 324.4 (antibody, V domains shown)
VH: QSVKESEGRLVTPGTPLTLTCTVSGFSPSSYNMGWVRQAPGEGLEWIGYISTSGNTFYASWAKGRFTISKTSTTVDLRITSPTTEDTATYFCARGSYVAYNAWDLWGPGTLVTISS
VL: ELDLTQTASPVSAAVGGTVTINCQSSQSVYNNNYLSWYQQKPGQPPKLLIYGASTLASGVPSRFKGSGSGTQFTLTISEVQCDDAATYYCQGYYSGYIYAFGGGTEVVVK
notes: rabbit hybridoma mAb; also called clone 324.4
- Neutralization in ARPE-19 cells EC50 [1]: 0.1 µg/mL
- Neutralization in MRC-5 cells EC50 [1]: 0.21 µg/mL
- EC50 [2]: 4.09 µg/mL
- binding result [3]: no binding (tested: 1 µg/ml)

B13: 212.6 (antibody, V domains shown)
VH: QSLEESGGRLVTPGTPLTLTCTVSGFSLSSYAMSWVRQAPGKGLEWIGIIGSSGNTYYASWAKGRFTISKTSTTVDLKITSPTTEDTATYFCARGGYSYDDYTPFDLWGPGTLVTVSS
VL: ELVLTQSPSLSASLGTTARLTCTLSTGYSVGKYPLVWLQQVPGRPPRYLLTYHTEEFKHQGSGVHSRFSGSKDTSENAGVLSISGLQPEDEADYYCATAHATESSLHYVFGGGTQLTVT
notes: rabbit hybridoma mAb; also called clone 212.6
- Neutralization in ARPE-19 cells EC50 [1]: 3.71 µg/mL
- Neutralization in MRC-5 cells EC50 [1]: 100 µg/mL
- EC50 [2]: 52.9 µg/mL

B14: 347.3 (antibody, V domains shown)
VH: QSLEESEGRLVTPGTPLTLTCTVSGIDLSTYAMNWVRQAPGKGLEWIGIIGSSGGAYYASWAKGRCTISKTSTTVDLKITSPTTEDTATYFCAVSLYTYDDYADYFLWGPGTLVTISS
VL: ELVLTQSPSLSASLGTTARLTCTLSTGYSVGKYPLVWLQQVPGRPPRYLLTYHTEEFKHQGSGVHSRFSGSKDTSENSFVLRIFGLQPEDEADYYCVTAHPTESSLHYVFGGGTQLTVT
notes: rabbit hybridoma mAb; also called clone 347.3
- Neutralization in ARPE-19 cells EC50 [1]: 0.03 µg/mL
- Neutralization in MRC-5 cells EC50 [1]: 100 µg/mL
- EC50 [2]: 0.34 µg/mL
- binding result [3]: no binding (tested: 1 µg/ml)
